Measurements: the supplement of paper PMC9112550, “Optimization of the antimicrobial peptide Bac7 by deep mutational scanning” (BMC Biology, 2022)

What follows are sequences tested on Escherichia coli TOP10 (assay: shrunken log2 fold change of peptide-encoding DNA abundance (4.5 h post-induction vs induction); higher = less antimicrobial activity (less host growth inhibition)). Details: time post-induction: 4.5 h; library: site-saturation at positions 5, 18, 19, 20.
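Note: peptides expressed intracellularly from a pBAD plasmid library in pooled LB shake-flask culture, induced with 0.3% L-arabinose, DNA abundance read by NGS, three biological replicates, DESeq2 with apeglm shrinkage.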

First: RRIRCRPPRLPRPRPRPICFPRP
Second: RRIRQRPPRLPRPRPRPILPPRP
The “shrunken log2 fold change” value of the first is lower: -0.241 for the first, 0.0747 for the second.

First: RRIRTRPPRLPRPRPRPNMMPRP
Second: RRIRARPPRLPRPRPRPDLDPRP
The “shrunken log2 fold change” value of the first is lower: -0.237 for the first, 0.515 for the second.

RRIRLRPPRLPRPRPRPKCQPRP and RRIRRRPPRLPRPRPRPYRWPRP are within 0.2 log units of each other in “shrunken log2 fold change” value: -0.319 for the first, -0.356 for the second.

First: RRIRKRPPRLPRPRPRPVNRPRP
Second: RRIRFRPPRLPRPRPRPPIMPRP
The “shrunken log2 fold change” value of the first is higher: 0.0352 for the first, -0.451 for the second.

Compared with RRIRIRPPRLPRPRPRPTHNPRP, RRIRPRPPRLPRPRPRPRPCPRP is higher in “shrunken log2 fold change” value: -0.145 for the first, 0.188 for the second.

Going from RRIRWRPPRLPRPRPRPPLAPRP to RRIRVRPPRLPRPRPRPVDEPRP, the “shrunken log2 fold change” value falls from 1.63 to 0.144.

Going from RRIRHRPPRLPRPRPRPKDKPRP to RRIRCRPPRLPRPRPRPYKMPRP, the “shrunken log2 fold change” value falls from -0.23 to -1.66.

Compared with RRIRKRPPRLPRPRPRPIVMPRP, RRIRSRPPRLPRPRPRPCPIPRP is lower in “shrunken log2 fold change” value: 0.0102 for the first, -0.267 for the second.

RRIRWRPPRLPRPRPRPRSLPRP and RRIRHRPPRLPRPRPRPHGQPRP are within 0.2 log units of each other in “shrunken log2 fold change” value: -0.115 for the first, 0.0111 for the second.

First: RRIRDRPPRLPRPRPRPTDIPRP
Second: RRIRVRPPRLPRPRPRPYAQPRP
The “shrunken log2 fold change” value of the first is lower: -0.231 for the first, 0.0393 for the second.

First: RRIRSRPPRLPRPRPRPKTTPRP
Second: RRIRCRPPRLPRPRPRPRWSPRP
The “shrunken log2 fold change” value of the first is lower: 0.103 for the first, 0.422 for the second.

First: RRIRARPPRLPRPRPRPGHHPRP
Second: RRIRERPPRLPRPRPRPCKYPRP
The “shrunken log2 fold change” value of the first is lower: 0.127 for the first, 3.12 for the second.

RRIRWRPPRLPRPRPRPVPAPRP and RRIRMRPPRLPRPRPRPCGVPRP are within 0.2 log units of each other in “shrunken log2 fold change” value: 0.532 for the first, 0.714 for the second.

RRIRKRPPRLPRPRPRPNLFPRP and RRIRWRPPRLPRPRPRPKQQPRP are within 0.2 log units of each other in “shrunken log2 fold change” value: 0.00721 for the first, -0.133 for the second.

RRIRDRPPRLPRPRPRPPWLPRP and RRIRGRPPRLPRPRPRPPSLPRP are within 0.2 log units of each other in “shrunken log2 fold change” value: 0.296 for the first, 0.477 for the second.

First: RRIRNRPPRLPRPRPRPHILPRP
Second: RRIRTRPPRLPRPRPRPWEAPRP
The “shrunken log2 fold change” value of the first is lower: -0.106 for the first, 0.337 for the second.

First: RRIRSRPPRLPRPRPRPLHFPRP
Second: RRIRCRPPRLPRPRPRPVTKPRP
The “shrunken log2 fold change” value of the first is lower: -0.17 for the first, 0.217 for the second.

RRIRWRPPRLPRPRPRPWHGPRP and RRIRPRPPRLPRPRPRPQYVPRP are within 0.2 log units of each other in “shrunken log2 fold change” value: -0.368 for the first, -0.184 for the second.

Going from RRIRKRPPRLPRPRPRPTFNPRP to RRIRMRPPRLPRPRPRPECAPRP, the “shrunken log2 fold change” value rises from -0.344 to 3.56.

Going from RRIRYRPPRLPRPRPRPRAEPRP to RRIRTRPPRLPRPRPRPFLMPRP, the “shrunken log2 fold change” value falls from -0.162 to -0.378.

Compared with RRIRVRPPRLPRPRPRPMQNPRP, RRIRTRPPRLPRPRPRPWRRPRP is higher in “shrunken log2 fold change” value: 0.111 for the first, 0.496 for the second.

RRIRVRPPRLPRPRPRPNDKPRP and RRIRSRPPRLPRPRPRPHCNPRP are within 0.2 log units of each other in “shrunken log2 fold change” value: -0.351 for the first, -0.36 for the second.

RRIRPRPPRLPRPRPRPRKHPRP and RRIRNRPPRLPRPRPRPMCEPRP are within 0.2 log units of each other in “shrunken log2 fold change” value: 0.0952 for the first, -0.0162 for the second.

First: RRIRQRPPRLPRPRPRPPVCPRP
Second: RRIRARPPRLPRPRPRPLDEPRP
The “shrunken log2 fold change” value of the first is lower: -0.0828 for the first, 1.53 for the second.

Compared with RRIRTRPPRLPRPRPRPLLNPRP, RRIRCRPPRLPRPRPRPKLAPRP is higher in “shrunken log2 fold change” value: -0.157 for the first, 0.551 for the second.

RRIRQRPPRLPRPRPRPGVPPRP and RRIRVRPPRLPRPRPRPEAHPRP are within 0.2 log units of each other in “shrunken log2 fold change” value: 0.154 for the first, 0.0146 for the second.

Going from RRIRHRPPRLPRPRPRPQPMPRP to RRIRNRPPRLPRPRPRPSTQPRP, the “shrunken log2 fold change” value falls from -0.109 to -0.502.

RRIRHRPPRLPRPRPRPIIMPRP and RRIRIRPPRLPRPRPRPKQNPRP are within 0.2 log units of each other in “shrunken log2 fold change” value: -0.029 for the first, -0.197 for the second.

RRIRKRPPRLPRPRPRPDSCPRP and RRIRSRPPRLPRPRPRPTHEPRP are within 0.2 log units of each other in “shrunken log2 fold change” value: -0.0303 for the first, -0.0435 for the second.

Going from RRIRKRPPRLPRPRPRPKKFPRP to RRIRVRPPRLPRPRPRPNNWPRP, the “shrunken log2 fold change” value falls from 0.0892 to -0.183.

Going from RRIRERPPRLPRPRPRPGTRPRP to RRIRIRPPRLPRPRPRPTIFPRP, the “shrunken log2 fold change” value falls from -0.0692 to -0.398.

Compared with RRIRSRPPRLPRPRPRPCMRPRP, RRIRRRPPRLPRPRPRPVWMPRP is higher in “shrunken log2 fold change” value: 0.0526 for the first, 0.561 for the second.

Compared with RRIRDRPPRLPRPRPRPPWGPRP, RRIRTRPPRLPRPRPRPQRYPRP is lower in “shrunken log2 fold change” value: 0.344 for the first, -0.127 for the second.

Compared with RRIRCRPPRLPRPRPRPQHVPRP, RRIRMRPPRLPRPRPRPAPNPRP is higher in “shrunken log2 fold change” value: -0.199 for the first, 1.07 for the second.

Going from RRIRWRPPRLPRPRPRPEKAPRP to RRIRYRPPRLPRPRPRPMMHPRP, the “shrunken log2 fold change” value falls from -0.0225 to -0.626.

Going from RRIRGRPPRLPRPRPRPAWGPRP to RRIRLRPPRLPRPRPRPICGPRP, the “shrunken log2 fold change” value falls from 0.268 to -0.0025.

Going from RRIRPRPPRLPRPRPRPGFQPRP to RRIRNRPPRLPRPRPRPYGIPRP, the “shrunken log2 fold change” value falls from 0.215 to -0.00992.

RRIRQRPPRLPRPRPRPTKCPRP and RRIRTRPPRLPRPRPRPNLSPRP are within 0.2 log units of each other in “shrunken log2 fold change” value: 0.0325 for the first, 0.00227 for the second.

First: RRIRHRPPRLPRPRPRPYLKPRP
Second: RRIRQRPPRLPRPRPRPHHPPRP
The “shrunken log2 fold change” value of the first is lower: -0.298 for the first, 0.00343 for the second.

First: RRIRNRPPRLPRPRPRPHIYPRP
Second: RRIRHRPPRLPRPRPRPFWAPRP
The “shrunken log2 fold change” value of the first is lower: -0.0215 for the first, 0.245 for the second.

RRIRDRPPRLPRPRPRPTSEPRP and RRIRCRPPRLPRPRPRPMRKPRP are within 0.2 log units of each other in “shrunken log2 fold change” value: 0.236 for the first, 0.249 for the second.

Going from RRIRMRPPRLPRPRPRPFWLPRP to RRIRPRPPRLPRPRPRPLNVPRP, the “shrunken log2 fold change” value falls from -0.179 to -0.448.

Compared with RRIRDRPPRLPRPRPRPKNNPRP, RRIRVRPPRLPRPRPRPRCPPRP is higher in “shrunken log2 fold change” value: -0.556 for the first, -0.00901 for the second.

First: RRIRQRPPRLPRPRPRPMYRPRP
Second: RRIRPRPPRLPRPRPRPFGWPRP
The “shrunken log2 fold change” value of the first is lower: 0.0341 for the first, 0.328 for the second.

Going from RRIRTRPPRLPRPRPRPADFPRP to RRIRERPPRLPRPRPRPIVVPRP, the “shrunken log2 fold change” value falls from 0.0361 to -0.29.

Going from RRIRVRPPRLPRPRPRPLAVPRP to RRIRQRPPRLPRPRPRPNRTPRP, the “shrunken log2 fold change” value falls from 0.33 to 0.0639.

RRIRQRPPRLPRPRPRPNKGPRP and RRIRSRPPRLPRPRPRPDWMPRP are within 0.2 log units of each other in “shrunken log2 fold change” value: -0.0896 for the first, 0.0892 for the second.

RRIRSRPPRLPRPRPRPHKEPRP and RRIRVRPPRLPRPRPRPDTVPRP are within 0.2 log units of each other in “shrunken log2 fold change” value: -0.00927 for the first, -0.186 for the second.

Compared with RRIRSRPPRLPRPRPRPAYLPRP, RRIRQRPPRLPRPRPRPCNHPRP is higher in “shrunken log2 fold change” value: -0.731 for the first, 0.037 for the second.

Compared with RRIRHRPPRLPRPRPRPNTCPRP, RRIRERPPRLPRPRPRPGMGPRP is higher in “shrunken log2 fold change” value: -0.53 for the first, -0.0461 for the second.

RRIRWRPPRLPRPRPRPGFSPRP and RRIRYRPPRLPRPRPRPVQDPRP are within 0.2 log units of each other in “shrunken log2 fold change” value: 0.138 for the first, -0.00208 for the second.

RRIRDRPPRLPRPRPRPGYHPRP and RRIRERPPRLPRPRPRPFELPRP are within 0.2 log units of each other in “shrunken log2 fold change” value: -0.071 for the first, -0.0731 for the second.

Going from RRIRDRPPRLPRPRPRPKLKPRP to RRIRNRPPRLPRPRPRPCSPPRP, the “shrunken log2 fold change” value falls from -0.0223 to -0.354.

First: RRIRLRPPRLPRPRPRPTHEPRP
Second: RRIRSRPPRLPRPRPRPGTSPRP
The “shrunken log2 fold change” value of the first is higher: 0.361 for the first, -0.167 for the second.

In the case of RRIRHRPPRLPRPRPRPLAEPRP, the “shrunken log2 fold change” value is reported as 0.243.
